These results are taken from paper PMC2806667 (Molecular microbiology, 2009).

First the molecules themselves.
T1: His6-VID full length (Bacillus subtilis, UniProt P37963 1-575)
T1 sequence (looked up): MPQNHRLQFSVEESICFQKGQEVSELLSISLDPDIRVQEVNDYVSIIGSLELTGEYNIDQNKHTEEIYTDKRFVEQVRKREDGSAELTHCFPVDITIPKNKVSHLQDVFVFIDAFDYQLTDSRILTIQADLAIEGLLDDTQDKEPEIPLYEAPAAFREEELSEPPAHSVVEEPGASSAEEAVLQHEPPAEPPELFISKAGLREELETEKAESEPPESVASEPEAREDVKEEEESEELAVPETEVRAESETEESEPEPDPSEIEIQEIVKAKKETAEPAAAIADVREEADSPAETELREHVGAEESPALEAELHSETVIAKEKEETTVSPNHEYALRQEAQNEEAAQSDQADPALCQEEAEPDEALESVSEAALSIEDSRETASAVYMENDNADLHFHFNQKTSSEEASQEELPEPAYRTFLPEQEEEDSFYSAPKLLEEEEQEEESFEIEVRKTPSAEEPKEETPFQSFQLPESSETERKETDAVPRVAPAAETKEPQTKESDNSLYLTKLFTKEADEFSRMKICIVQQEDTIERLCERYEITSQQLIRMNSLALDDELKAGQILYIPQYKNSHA

T2: GST-VID (full length) (Bacillus subtilis, UniProt P37963 1-575)
T2 sequence (looked up): T1 sequence (looked up)

B1: His6-VID(121-521) (domain or fragment, Bacillus subtilis, UniProt P37963 121-521, looked up)
chain: DSRILTIQADLAIEGLLDDTQDKEPEIPLYEAPAAFREEELSEPPAHSVVEEPGASSAEEAVLQHEPPAEPPELFISKAGLREELETEKAESEPPESVASEPEAREDVKEEEESEELAVPETEVRAESETEESEPEPDPSEIEIQEIVKAKKETAEPAAAIADVREEADSPAETELREHVGAEESPALEAELHSETVIAKEKEETTVSPNHEYALRQEAQNEEAAQSDQADPALCQEEAEPDEALESVSEAALSIEDSRETASAVYMENDNADLHFHFNQKTSSEEASQEELPEPAYRTFLPEQEEEDSFYSAPKLLEEEEQEEESFEIEVRKTPSAEEPKEETPFQSFQLPESSETERKETDAVPRVAPAAETKEPQTKESDNSLYLTKLFTKEADEFSR
B2: GST-VID L201-A575 fragment (domain or fragment, Bacillus subtilis, UniProt P37963 201-575, looked up)
chain: LREELETEKAESEPPESVASEPEAREDVKEEEESEELAVPETEVRAESETEESEPEPDPSEIEIQEIVKAKKETAEPAAAIADVREEADSPAETELREHVGAEESPALEAELHSETVIAKEKEETTVSPNHEYALRQEAQNEEAAQSDQADPALCQEEAEPDEALESVSEAALSIEDSRETASAVYMENDNADLHFHFNQKTSSEEASQEELPEPAYRTFLPEQEEEDSFYSAPKLLEEEEQEEESFEIEVRKTPSAEEPKEETPFQSFQLPESSETERKETDAVPRVAPAAETKEPQTKESDNSLYLTKLFTKEADEFSRMKICIVQQEDTIERLCERYEITSQQLIRMNSLALDDELKAGQILYIPQYKNSHA
B3: His6-VID(121-575) (domain or fragment, Bacillus subtilis, UniProt P37963 121-575, looked up)
chain: DSRILTIQADLAIEGLLDDTQDKEPEIPLYEAPAAFREEELSEPPAHSVVEEPGASSAEEAVLQHEPPAEPPELFISKAGLREELETEKAESEPPESVASEPEAREDVKEEEESEELAVPETEVRAESETEESEPEPDPSEIEIQEIVKAKKETAEPAAAIADVREEADSPAETELREHVGAEESPALEAELHSETVIAKEKEETTVSPNHEYALRQEAQNEEAAQSDQADPALCQEEAEPDEALESVSEAALSIEDSRETASAVYMENDNADLHFHFNQKTSSEEASQEELPEPAYRTFLPEQEEEDSFYSAPKLLEEEEQEEESFEIEVRKTPSAEEPKEETPFQSFQLPESSETERKETDAVPRVAPAAETKEPQTKESDNSLYLTKLFTKEADEFSRMKICIVQQEDTIERLCERYEITSQQLIRMNSLALDDELKAGQILYIPQYKNSHA
B4: His6-IVA (SpoIVA) (natural protein, Bacillus subtilis, UniProt P35149 1-492, looked up)
chain: MEKVDIFKDIAERTGGDIYLGVVGAVRTGKSTFIKKFMELVVLPNISNEADRARAQDELPQSAAGKTIMTTEPKFVPNQAMSVHVSDGLDVNIRLVDCVGYTVPGAKGYEDENGPRMINTPWYEEPIPFHEAAEIGTRKVIQEHSTIGVVITTDGTIGDIARSDYIEAEERVIEELKEVGKPFIMVINSVRPYHPETEAMRQDLSEKYDIPVLAMSVESMRESDVLSVLREALYEFPVLEVNVNLPSWVMVLKENHWLRESYQESVKETVKDIKRLRDVDRVVGQFSEFEFIESAGLAGIELGQGVAEIDLYAPDHLYDQILKEVVGVEIRGRDHLLELMQDFAHAKTEYDQVSDALKMVKQTGYGIAAPALADMSLDEPEIIRQGSRFGVRLKAVAPSIHMIKVDVESEFAPIIGTEKQSEELVRYLMQDFEDDPLSIWNSDIFGRSLSSIVREGIQAKLSLMPENARYKLKETLERIINEGSGGLIAIIL

In assay [1] the target is B4. Description: far-Western, overlay or dot blot.
In assay [2] the target is B4. Description: pull-down.
Assay [3] addresses T1, His6-VID full length. Description: far-Western, overlay or dot blot.
Assay [4] addresses T2, GST-VID (full length). Nature of the assay: pull-down.

For the molecule B1, the binding result in assay [1] is recorded as “binds”. As to B2, the binding result in assay [2] is “binds”. For the molecule B3, in assay [1], the binding result was “binds”. Consider B4, for which the binding result in assay [3] and in assay [4] was “binds” each time.
